Experiment [1] has as its target bcPadR1, PadR-like transcriptional regulator from Bacillus cereus ATCC 14579 (product of gene locus BC4206) (Bacillus cereus ATCC 14579). Briefly: SEC; analytical gel filtration, Superdex 200 PC 3.2/30; 20 mM Tris-HCl pH 8.0, 200 mM NaCl, 1 mM EDTA, 1 mM dithiothreitol; apparent molecular weight against five marker proteins. For orientation: SEC sorts molecules by how far they enter the pores of the column.

Experiment [2] has as its target bcPadR2, PadR-like transcriptional regulator from Bacillus cereus ATCC 10987 (product of gene locus BCE3449) (Bacillus cereus ATCC 10987). The experiment is described as above.

As a reminder, the stoichiometry N is a count of units in the complex or per binding partner. As to “bcPadR1, PadR-like transcriptional regulator from Bacillus cereus ATCC 14579 (product of gene locus BC4206) (natural protein)”, the stoichiometry N in experiment [1] was 2.

Take “bcPadR2, PadR-like transcriptional regulator from Bacillus cereus ATCC 10987 (product of gene locus BCE3449) (natural protein)”: the stoichiometry N in experiment [2] stood at 2.

Values taken from PMC3506622.
